Data from the nanobody polyreactivity screen of Harvey et al. (2022).

Assay: yeast display, Sf9 membrane polyspecificity reagent, FACS + sequencing; frameworks hold sequencing errors
Method in brief: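 Nanobodies from a synthetic yeast display library (Saccharomyces cerevisiae BJ5465), induced 36–48 hours with galactose, were stained 1 hour at 4 °C with 10% biotinylated, detergent-solubilized Sf9 membrane reagent, enriched on streptavidin microbeads, then FACS-sorted. Anti-HA (expression) and streptavidin (reagent binding) fluorescence set low and high (top ~1%) gates. Polyreactivity labels come from the gate of origin. Genes were colony-PCR amplified, MiSeq 2 × 250 sequenced and filtered by CDR length.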

Row | Sequence | polyreactivity (PSR sort gate)
1 | QVQLVESGGGLVQAGGSLRLSCAASGSIFTTYAMGWSRQAPGKERELVAAISRSGGSTYSADSVKGRFTISRDNANYTVYLQKNSLKPEDTAVYYCNAVSRYTSDYEDDYWGLGTQVTVSS | high polyreactivity
2 | QVQLVESGGGLVQAGGSLRLSCAASGSIFTTYAMGWYRQAPGKERELVAAISRAGDTTYADSVKGRFTISRDNAKNTVYLQMNSLKPEDTAVYYCADYDYWGQGTQVTVSS | low polyreactivity
3 | QVQLVESGGGLVQAGGSLRLSCAASGSIFTTYAMGWYRQAPGKERELVAGITGGDSSTYADSVKGRFTISRDNAKNTVYLQMNSLKPEDTAVYYCAVDSPYQHDDYWGQGTQVTVSS | low polyreactivity
4 | QVQLVESGGGLVQAGGSLRLSCAASGSIFTTYAMGWYRQAPGKERELVAVISRRGGSTYYADSVKGRFTISRDNAKNTVYLQMNSLTPEDTADYYCNAYTYTYHRDHTDRYNYWGQGTQVTVSS | high polyreactivity
5 | QVQLVESGGGLVQAGGSLRLSCAASGSIFTVNAMGWYRPAPAKERELVATISDTGGSTYADSVKGRFTISRYNAKNTVYLQMNSLKPEDTAVYYCNADYYVRRYPPYDYWGQGTQVTVSS | low polyreactivity
6 | QVQLVESGGGLVQAGGSLRLSCAASGSIFTVNAMGWYRQAPGKERELVAAIDGSSGSTNYADSVKGRFTISRDNAKNTVYLQMNSLKPEDTAVYYCAADWSYEYGYWGQGTQVTVSS | low polyreactivity
7 | QVQLVESGGGLVQAGGSLRLSCAASGSIFTVYAMGWSRQAPGKERELVAAITSGGSTNYADSVKGRFTISRDNAKNTVYLQMNSLKPEDTAVYDCNAVWRYGSARYGYWGQGTQVTVSS | low polyreactivity
8 | QVQLVESGGGLVQAGGSLRLSCAASGSIFTWYTMGWYRQAPGKERELVAGIRTGGSTYYADSVKGRFTISRDNAKNTVYLQMNSLKPEDTSVYYCARQRWYRQYYFTSDYWGLGTQVTVSS | high polyreactivity
9 | QVQLVESGGGLVQAGGSLRLSCAASGSIFTYNAMGWYRPAPGKERELVAAINTSGSTNYADSVKGRFTISRDNAKNTVYLQMNSLKPEVTAVFYCAAGIVVTGYYYWGQGTQVTVSS | low polyreactivity
10 | QVQLVESGGGLVQAGGSLRLSCAASGSIFTYNAMGWYRQAPGKERELVAAIRLSGGSTYYADSVKGRFTISRDNAKNTVYLQMNSLKPEDTAVYYCATEYDYGSWYPDGWGIFDYWGQGTQVTVSS | low polyreactivity
11 | QVQLVESGGGLVQAGGSLRLSCAASGSIFTYNAMGWYRQAPGKERELVATISDGGSTYYADSVKGRFTISRDNAKNTVYLQMNSLKPEDTAVYYCNKDRVSVRYEYWGQGTQVTVSS | low polyreactivity
12 | QVQLVESGGGLVQAGGSLRLSCAASGSIFTYNVMGWYRQAPGKERELVAAIRTRGDRTYYADSVKGRFTISRDNAKNTVYLQMNSLKPEDTAVYYCAAAGSYYSHEYWGQGTQVTVSS | high polyreactivity
13 | QVQLVESGGGLVQAGGSLRLSCAASGSIFTYTMGWYRQAPGKERELVAVISRSGGRTYYADSVKGRFTISRDNAKNTVYLQMNSLKPEDTAVYYCATDGHNGYYGRYDYWGQGTQVTVSS | high polyreactivity
14 | QVQLVESGGGLVQAGGSLRLSCAASGSIFTYYAKGWYRQAPGKERELVAAISRRGTRTYYADSVKGRFTISRDNAKNTVYLQMNSLKPEDTAVYYCAKVGYTYRAYEFAYWGQGTQVTVSS | high polyreactivity
15 | QVQLVESGGGLVQAGGSLRLSCAASGSIFTYYAMGWYRQAPGKEREFVAAINRSGGSTYYADSVKGRFTISRDNAKYTVYLQMNSLKPEDTAVYYCAARRGSGALRYNYWGQGTQVTVSS | high polyreactivity
16 | QVQLVESGGGLVQAGGSLRLSCAASGSIFTYYAMGWYRQAPGKERELVAAISWNGGTTYYADSVKGLFTISRDNAKNTVYLQMNSLKPEDTAVYYCNKDGSYRYDYWGQGTQVTVSS | low polyreactivity

Row | Sequence | polyreactivity (PSR sort gate)
17 | QVQLVESGGGLVQAGGSLRLSCAASGSIFTYYAMGWYRQAPGKERELVADIRWSGGSTYYADSVKGRFTISRDNAKNTVYLQMNSLKPEDTAVYFCNARYYSYWPIYNFDYWGQGTQVTVSS | low polyreactivity
18 | QVQLVESGGGLVQAGGSLRLSCAASGSIFTYYVMGWYRQAPGKERELVAAITRSGGRTYYADSVKGRFTISRDNAKNTVYLQMNSLKPEDTAVYYCAARKYTGSGSRYYYWGQGTQVTVSS | high polyreactivity
19 | QVQLVESGGGLVQAGGSLRLSCAASGSIFVAYAMGWYRQAPGKERELVAAITYSAGSTYYADSVKGRFTISRDNAKNTVYLQMNSLKPEDTAVYYCAADTYTYFLASYLYGQYDYWGQGTQVTVSS | low polyreactivity
20 | QVQLVESGGGLVQAGGSLRLSCAASGSIFVDNAMGWYRQAPGKERELVAAITDSGGRTYYADSVKGRFTISRDNAKNTVYLQMNSLKPEDTAVYYCAAGQSGYAGRRPAFGYWGQGTQVTVSS | low polyreactivity
21 | QVQLVESGGGLVQAGGSLRLSCAASGSIFVDNAMGWYRQAPGKERELVAVITLRSGSTNYADSVKGRFTISRDNAKNTVYLQMNSLKPEDTAVYYCAADETYHDYQRDTDDDYWGQGTQVTVSS | low polyreactivity
22 | QVQLVESGGGLVQAGGSLRLSCAASGSIFVDNDMGWYRPAPGKERELVAAIRSSGTSTYYADSVKGRFTISRDNAKNTVYLQMNSLKPEDTAVYYCATRYPRRHVYPKPYYYWGQGTQVTVSS | low polyreactivity
23 | QVQLVESGGGLVQAGGSLRLSCAASGSIFVDYAMGWYRQAPGKERELVAAITSTGSTTYADSVKGRFTISRDNAKNTVYLQMNSLKPEDTAVYYCAASFRWYGTVRYPYEMYYWGQGTQVTVSS | low polyreactivity
24 | QVQLVESGGGLVQAGGSLRLSCAASGSIFVFYAMGWYRQAPGKERELVATISSAGSTYYADSVKGRFTISRDNAKNTVYLQMNSLKPEDTAVYYCARGYIPSYWWYHSDRGDYWGQGTQVTVSS | low polyreactivity
25 | QVQLVESGGGLVQAGGSLRLSCAASGSIFVGNAMGWYIQAPGKERELVAAISRSGGSTYYADSVKGRFTISRDNAKNTVYLQMNSLKPEDTAVYYCAAVRKQGSGFDYWGQGTQVTVSS | high polyreactivity
26 | QVQLVESGGGLVQAGGSLRLSCAASGSIFVGNAMGWYRPAPGKERELVAAISSSGGSTYYADSVKGRFTISRDNAKNTVYLQMNSLKPEDTAVYYCAADIFSPAFDYWGQGTQVTVSS | low polyreactivity
27 | QVQLVESGGGLVQAGGSLRLSCAASGSIFVGNAMGWYRQAPAKERELVDTISWSGGSTYYADSVKGRFTISRDNAKNTVYVQMTSLKPEDTAVYYCAKTPYRRYRYGCYTYRTYDYWGHGTQVTVSS | low polyreactivity
28 | QVQLVESGGGLVQAGGSLRLSCAASGSIFVGNAMGWYRQAPGKERELVAAISSGGSTYYADSVKGRFTISRDNAKNTVYLQMNSLKPEDTAVYYCAAYYVRRYSSRPKDDYWGQGTQVTVSS | low polyreactivity
29 | QVQLVESGGGLVQAGGSLRLSCAASGSIFVGNTMGWYRQAPGKERELVAALTWSGGRTYYADSVKGRFTISRDNEKNTVYLQMHSLKPEDTAVYYCNALANYIRYYYWGQGTQVTVSS | high polyreactivity
30 | QVQLVESGGGLVQAGGSLRLSCAASGSIFVGYAMGWYRQAPGKERELVAAITFRGGSTYYADSVKGRFTISRDNAKNTVYLQMNSLKPEDTAVYYCNRVVRLRRPAQYNYWGQGTQVTVSS | high polyreactivity
31 | QVQLVESGGGLVQAGGSLRLSCAASGSIFVGYAMGWYRQAPGKEREVVAAISSSGTSTYYADSVKGRFTISRDNAKNTVYLQMNSLKPEDTAVYYCNARWYVPAYEFDYWGHGTQVTVSS | low polyreactivity
32 | QVQLVESGGGLVQAGGSLRLSCAASGSIFVGYAMGWYRQAPWKERELVAAISKRGGGTYYADSVKGRFTISRDNAKNTVYLHMNSLKPEDTAVYYCNAVPVHLDVASGYYYWGQGTQVTVSS | high polyreactivity
